Laboratory results reported in PMC2695410 (2009).

Target: Calmodulin (Bos taurus, UniProt P62157)
Experiment: dansyl-calmodulin fluorescence titration

Row | Binder | Kd [nM]
1 | WASMLACRLWKAISRALFAEF (dansyl-calmodulin, Ca2+) [Aquaporin 6 N-terminal peptide (h6 Nter) N-terminal calmodulin binding site, 21-aa peptide] | 1780
2 | RAYLLVGGLWTAISKALFAEF (dansyl-calmodulin, Ca2+) [Aquaporin 6 N-terminal peptide (Nter) N-terminal calmodulin binding site, 21-aa peptide] | 790
